Measured values from US20090203610A1, “METHODS OF TREATING OBESITY OR DIABETES USING NT-4/5” (RINAT NEUROSCIENCE CORPORATION, priority 2004, published 2009).

Legend:
[1] = target: T1, human TrkB (Homo sapiens, UniProt Q16620); assay: Receptor tyrosine phosphorylation (KIRA) in TrkB expressing cell line; type: cell-based
T1 construct: expressed in transfected cells

[2] = target: T2, p75NTR (Homo sapiens, UniProt P08138); settings: low affinity receptor (LNGFR, p75NTR); cited from earlier work
T2 sequence (P08138 29-427): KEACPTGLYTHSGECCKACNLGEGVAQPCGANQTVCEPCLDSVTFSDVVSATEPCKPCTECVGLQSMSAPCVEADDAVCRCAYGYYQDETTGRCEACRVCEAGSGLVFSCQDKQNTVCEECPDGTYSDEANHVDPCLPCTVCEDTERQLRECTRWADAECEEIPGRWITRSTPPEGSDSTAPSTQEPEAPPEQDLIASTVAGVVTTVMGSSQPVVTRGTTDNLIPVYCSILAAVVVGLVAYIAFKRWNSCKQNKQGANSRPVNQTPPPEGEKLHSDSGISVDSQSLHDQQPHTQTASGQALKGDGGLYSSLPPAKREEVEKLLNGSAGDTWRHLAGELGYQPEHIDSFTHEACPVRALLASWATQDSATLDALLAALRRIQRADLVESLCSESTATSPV

[3] = tested on: DIO mice; assay: Body weight after intravenous NT-4/5 in DIO mice, separate study (Example 5); type: in vivo; settings: i.v. 5 mg/kg on day 1 and day 4
Source text: Two way ANOVA followed by Bonferroni's post-test were used for statistical analysis.

[4] = tested on: NONcNZO-10 polygenic obese mice; assay: Body weight in NONcNZO-10 mice (Example 4, Table 19); type: in vivo
Source text: Test animals: 40 male NONcNZO-10 polygenic obese mice obtained from Jackson Laboratory at 10 weeks of age weighing in the range of 26-32 g were used in this study.
Administration of NT-4/5: NT-4/5 was produced in E. coli as descried in U.S. Pat. No. 6,184,360. The mice were divided into 6 groups of equivalent body weight and baseline blood glucose distribution (6-7 mice per group). […] A “paired-fed” control group received daily injection of vehicle, but were only fed with the same amount of food the 3 mg/kg group consumed the previous day. On the day when the treatment started (day 1), a baseline blood samples were collected for measuring glucose and triglyceride. Triglyceride level was measured on day 10. At the end of the study (day 12), a terminal blood sample was collected to determine glucose, triglyceride, electrolytes (Na, K, Cl), testoterone, corticosterone, thyroid hormone (total T4) and thyroid stimulating hormone (TSH) levels. Electrolytes, free testosterone, T4 and TSH levels of serum samples were measured by AniLytics (Gaithesburg, M.D) according to the standard protocols employed by the vendor. Other analytes were measured as described above. Body weight, food intake were monitored 5 days per week through out the entire study. Daily water intake was measured from day 5 through day 7.

[5] = tested on: DIO mice; assay: NT-4/5 versus BDNF on body weight and food intake of DIO mice (Example 10); type: in vivo
Source text: Test animals: Mice with diet induced obesity (DIO) were used in this study. 22 male C57BL/6J mice were weaned at 4 weeks of age. Immediately after weaning they were put on 58% high fat diet (D12331i, Research Diet) through out the study. The DIO mice at 13 weeks of age weighing in the range of 28-40 g were used in this study.
Administration of NT-4/5 and BDNF: NT-4/5 was produced was produced as described in U.S. Pat. No. 6,184,360. The recombinant human BDNF was obtained from PeproTech Inc. (Rocky Hill, N.J.).
The mice were divided into 3 groups of equivalent body weight distribution (7-8 mice per group). Each group received 2 weekly intravenous doses of either vehicle, 2 mg/kg of NT-4/5 or 2 mg/kg of BDNF, respectively. Body weight and food intake were taken the day before treatment started (day 0) and followed subsequently on a daily basis.

[6] = target: T3, human TrkC (Homo sapiens, UniProt Q16288); assay: Receptor tyrosine phosphorylation in trkC expressing cell line; type: cell-based
T3 construct: expressed in transfected cells
Source text: (§1) Assays of TrkB specific activation by pegylated NT-4/5: Stable cell lines expressing human TrkA, TrkB or TrkC were used to determine the functional activity, i.e. receptor phosphorylation, of NT-4/5 and pegylated NT-4/5 as previously described (Sadick et al. Experimental Cell Research 234: 354-361, 1997).
(§2) Assays of TrkB specific activation by pegylated NT-4/5: Stable cell lines expressing human TrkA, TrkB or TrkC were used to determine the functional activity, i.e. receptor phosphorylation, of NT-4/5 and different forms of pegylated NT-4/5 as previously described (Sadick et al. Experimental Cell Research 234: 354-361, 1997).

[7] = target: T4, human TrkA (Homo sapiens, UniProt P04629); assay: Receptor tyrosine phosphorylation in trkA expressing cell line; type: cell-based
T4 construct: expressed in transfected cells
Source text: as §1, §2

[8] = tested on: Sprague-Dawley rats; assay: Heat/thermal hyperalgesia, latency for foot withdrawal (Example 13); type: in vivo
Method: To test whether NT-4/5 elicits pain in animals after NT-4/5 administration, a heat/thermal hyperalgesia animal model was used for testing. […] Then the latency for foot withdrawal in response to a constant radiant heat source was measured. See, Hargreaves et al., Neurology 48:501-505 (1997); Shu et al., Pain 80:463-470 (1999).

[9] = weekly intravenous injection, 2 mg/kg

T3 sequence (Q16288 32-839): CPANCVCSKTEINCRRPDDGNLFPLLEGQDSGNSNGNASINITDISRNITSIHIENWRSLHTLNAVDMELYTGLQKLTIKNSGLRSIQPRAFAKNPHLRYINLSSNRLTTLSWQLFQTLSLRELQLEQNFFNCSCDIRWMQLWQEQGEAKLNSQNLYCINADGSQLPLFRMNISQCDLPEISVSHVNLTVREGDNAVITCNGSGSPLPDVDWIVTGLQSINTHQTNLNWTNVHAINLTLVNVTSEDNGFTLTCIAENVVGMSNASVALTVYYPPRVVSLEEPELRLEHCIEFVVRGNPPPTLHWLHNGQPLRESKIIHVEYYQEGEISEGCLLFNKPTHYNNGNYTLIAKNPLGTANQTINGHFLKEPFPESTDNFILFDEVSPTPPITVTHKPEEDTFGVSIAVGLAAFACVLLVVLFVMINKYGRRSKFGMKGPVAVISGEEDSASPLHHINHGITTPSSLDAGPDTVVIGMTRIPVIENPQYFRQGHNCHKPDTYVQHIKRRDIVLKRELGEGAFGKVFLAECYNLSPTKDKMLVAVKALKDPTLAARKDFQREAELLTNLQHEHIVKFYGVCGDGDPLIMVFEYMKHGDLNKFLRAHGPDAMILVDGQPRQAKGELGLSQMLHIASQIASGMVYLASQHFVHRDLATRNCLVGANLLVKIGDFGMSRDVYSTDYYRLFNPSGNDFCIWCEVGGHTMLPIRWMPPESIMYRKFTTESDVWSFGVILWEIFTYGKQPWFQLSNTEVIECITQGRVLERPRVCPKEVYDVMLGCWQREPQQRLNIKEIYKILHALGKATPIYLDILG
T4 sequence (P04629 33-796): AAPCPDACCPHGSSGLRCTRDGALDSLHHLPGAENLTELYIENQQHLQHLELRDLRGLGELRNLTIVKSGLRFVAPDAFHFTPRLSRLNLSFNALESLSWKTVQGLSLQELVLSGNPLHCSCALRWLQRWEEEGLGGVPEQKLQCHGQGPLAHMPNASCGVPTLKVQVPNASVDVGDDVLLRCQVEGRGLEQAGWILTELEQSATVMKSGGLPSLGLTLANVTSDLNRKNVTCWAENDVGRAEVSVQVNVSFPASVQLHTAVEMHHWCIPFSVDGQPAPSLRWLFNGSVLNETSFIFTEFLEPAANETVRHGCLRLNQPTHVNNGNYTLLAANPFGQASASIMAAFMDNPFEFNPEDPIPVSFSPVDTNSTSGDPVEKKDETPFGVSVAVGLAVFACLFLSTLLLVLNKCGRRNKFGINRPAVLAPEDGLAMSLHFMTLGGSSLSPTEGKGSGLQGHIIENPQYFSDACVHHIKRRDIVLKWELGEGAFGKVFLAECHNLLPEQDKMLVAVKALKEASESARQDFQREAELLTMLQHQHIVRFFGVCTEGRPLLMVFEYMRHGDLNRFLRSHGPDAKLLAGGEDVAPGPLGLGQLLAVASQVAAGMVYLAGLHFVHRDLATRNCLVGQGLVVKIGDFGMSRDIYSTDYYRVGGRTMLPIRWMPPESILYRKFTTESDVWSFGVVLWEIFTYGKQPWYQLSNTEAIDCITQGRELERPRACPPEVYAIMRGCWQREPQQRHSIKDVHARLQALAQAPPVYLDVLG
T1 sequence (Q16620 32-822): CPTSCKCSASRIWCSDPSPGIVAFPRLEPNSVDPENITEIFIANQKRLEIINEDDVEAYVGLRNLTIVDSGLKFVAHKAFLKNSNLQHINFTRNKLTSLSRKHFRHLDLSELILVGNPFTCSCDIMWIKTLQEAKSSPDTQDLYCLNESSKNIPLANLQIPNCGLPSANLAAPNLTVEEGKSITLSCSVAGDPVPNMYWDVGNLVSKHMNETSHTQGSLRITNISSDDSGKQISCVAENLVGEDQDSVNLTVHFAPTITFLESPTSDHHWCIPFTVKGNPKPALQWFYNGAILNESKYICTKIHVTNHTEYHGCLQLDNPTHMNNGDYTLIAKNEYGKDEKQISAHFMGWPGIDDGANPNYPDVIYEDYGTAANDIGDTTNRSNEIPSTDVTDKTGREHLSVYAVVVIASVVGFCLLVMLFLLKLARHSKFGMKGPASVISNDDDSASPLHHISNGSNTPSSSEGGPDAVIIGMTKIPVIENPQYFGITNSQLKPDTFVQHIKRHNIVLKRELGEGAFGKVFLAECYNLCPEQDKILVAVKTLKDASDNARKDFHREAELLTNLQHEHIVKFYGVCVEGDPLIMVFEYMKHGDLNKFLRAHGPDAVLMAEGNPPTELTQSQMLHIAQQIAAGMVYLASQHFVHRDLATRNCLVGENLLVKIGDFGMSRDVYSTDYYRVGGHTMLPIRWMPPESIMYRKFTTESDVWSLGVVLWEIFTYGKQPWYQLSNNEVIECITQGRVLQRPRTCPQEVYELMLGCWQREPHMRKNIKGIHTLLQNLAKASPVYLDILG

B1: NT-4/5: mature human neurotrophin-4/5 (SEQ ID NO:1), obtained from Genentech or produced in E. coli (protein, listed as Homo sapiens)
chain: GVSETAPASRRGELAVCDAVSGWVTDRRTAVDLRGREVEVLGEVPAAGGSPLRQYFFETRCKADNAEEGGPGAGGGGCRGVDRRHWVSECKAKQSYVRALTADAQGRVGWRWIRIDTACVCTLLSRTGRA
For B1, the “receptor tyrosine phosphorylation of TrkB-expressing cell line” value [1] is listed as “increased receptor tyrosine phosphorylation”, the Kd [2] is listed as 2 nM and the “reduction of body weight” value [3] is listed as “about 5%”. For the same molecule, the “time reduced body weight maintained after the second dose” value [3] was “at least 10 days”, the “body weight loss relative to the vehicle control” value ([4]; 1 mg/kg) was “about 5%” and the “body weight loss relative to the vehicle control” value ([4]; 3 mg/kg) was “about 10%”. The “body weight” value ([4]; dose dependent manner) was “reduced body weight”, the “body weight on day 2” value ([5]; 2 mg/kg i.v.) was “reduced body weight significantly” and the “food intake on day 2” value ([5]; 2 mg/kg i.v.) was “reduced food intake significantly”. The “body weight” value [5, 9] was “reduced the body weight more effectively than that of BDNF”, the “food intake” value [5, 9] was “reduced the food intake more effectively than that of BDNF” and the “receptor tyrosine phosphorylation of trkC-expressing cell line” value [6] was “did not increase receptor tyrosine phosphorylation”. The “receptor tyrosine phosphorylation of trkA-expressing cell line” value [7] was “did not increase receptor tyrosine phosphorylation”, the pain ([8]; 2 mg/kg) was “did not cause pain” and the “changes of latency for foot withdrawal in response to radiant heat” value ([8]; 2 mg/kg s.c., 3, 5 and 24 hour after administration) was “No statistically significant changes”.
